In US20210102195A1:

Experiments:
[1] = molecular target: human CD3 epsilon (human) (UniProt P07766); experiment: flow cytometry (MFI), titration 0.05-100 nM; cells not named on the panel, the same value stands for CD8+ T-Cell in FIG. 29F
[2] = molecular target: human CD3 epsilon (human) (UniProt P07766); experiment: flow cytometry (MFI), titration 0.05-100 nM on CD8+ T cells (2903)
[3] = molecular target: human CD3 epsilon (human) (UniProt P07766); experiment: flow cytometry (MFI), titration 0.05-100 nM on Jurkat cells (2901)
cyno CD3 epsilon (cyno) = cyno CD3 epsilon (cyno) (UniProt Q95LI5); experiment: biosensor sensorgrams with fits, instrument not named in Example 14; antigen not printed on the panel: taken as cyno CD3 epsilon because 28G-28I and 28J-28L repeat the same three spots (57, 169, 205) and the text gives 67 nM (28G) for human and 107 nM (28J) for cyno
[4] = molecular target: human CD3 epsilon (human) (UniProt P07766); experiment: biosensor sensorgrams with fits, instrument not named in Example 14; antigen not printed on the panel: taken as human CD3 epsilon because 28G-28I and 28J-28L repeat the same three spots (57, 169, 205) and the text gives 67 nM (28G) for human and 107 nM (28J) for cyno

human CD3 epsilon (human), sequence (P07766 23-126 limits assumed): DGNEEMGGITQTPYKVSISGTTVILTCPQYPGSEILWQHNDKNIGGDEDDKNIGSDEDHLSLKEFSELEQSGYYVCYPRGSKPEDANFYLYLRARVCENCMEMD
cyno CD3 epsilon (cyno), sequence (Q95LI5 22-117 limits assumed): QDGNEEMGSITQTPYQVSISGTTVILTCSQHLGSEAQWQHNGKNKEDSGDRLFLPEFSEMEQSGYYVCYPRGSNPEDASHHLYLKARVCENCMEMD

EC50 [1] [nM]	EC50 [2] [nM]	EC50 [3] [nM]	Kd (cyno CD3 epsilon (cyno)) [nM]	Kd [4] [nM]	Substance
3.05	3.05	0.537	–	–	R&D MAB100 (antibody)
–	–	–	38	< 0.0019	muSP34 (antibody)
